Measurements from the supplement of paper PMC10567573.

B1: RAB40B (parent)
chain: YSLTTSSTHKRSSLRKVKLVRPPQ

Variants of: B1
Assay: protein stability index of a GFP-peptide fusion (GPS, HEK-293T) (PSI 1-6); higher = more stable
Conditions: c terminus: a fixed tail appended
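Note: lentivirally expressed fusions sorted by FACS into six bins by GFP to DsRed ratio, PSI derived from sequencing read proportions per bin multiplied by bin number.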

Protein stability index: each site, then its substitutions
R21: I 2.52; D 3.19; V 2.53; H 2.9; G 3.62; C 2.91; K 3.55; A 3.15; T 2.76; W 2.25; Q 2.95; Y 2.4; P 2.89; E 3.41; F 2.17; S 3.09; N 2.92; M 2.51; L 3.61
K10: R 3.18; F 2.62; P 2.92; H 2.68; Y 3.05; C 2.3; E 3.67; V 2.55; L 2.81; W 1.89; I 2.02; Q 2.3; T 2.43; N 2.85; M 3.3; S 3.02; A 3.14; G 3.21; D 3.23
L19: N 3.39; S 3.45; D 3.71; T 3.25; G 3.7; A 4.17; Q 2.33; P 3.63; Y 2.81; R 3.18; W 3.15; F 3.1; E 3.04; K 4.09; I 2.9; C 3.37; H 3.33; V 3.19; M 3.13
H9: G 3.23; N 3.11; Y 2.38; A 2.75; E 2.72; L 3.26; W 1.82; F 2.91; R 3.29; P 3.08; Q 3.62; S 3.42; C 2.72; K 3.29; D 3.22; M 2.52; I 2.61; T 3.32; V 2.65
R15: C 2.81; K 3.24; Y 1.86; N 2.94; F 1.94; T 3.02; I 2.13; S 2.95; E 3.25; V 2.48; D 3.54; H 2.51; W 2.12; A 2.49; L 2.44; M 2.46; Q 3.35; P 3.47; G 2.97
P22: L 2.58; C 3.61; R 3; G 2.44; E 3.5; Q 3.39; T 3.32; A 2.76; S 3.13; K 3.28; F 2.44; I 2.27; D 3.39; V 2.48; M 2.76; W 1.94; Y 2.84; N 3.72; H 2.49
L14: D 3.83; K 3.37; A 3.68; V 3.25; Y 3.06; E 3.82; F 2.62; G 3.79; M 2.64; W 2.38; I 3.37; Q 3.98; S 3.5; R 3.69; H 3.46; N 3.77; P 3.86; C 2.6; T 3.87
K16: G 2.81; V 2.1; Y 2.9; N 3.19; Q 3.08; L 2.35; M 2.35; I 1.95; H 2.54; F 2.13; T 3.03; A 2.93; W 2.14; C 2.58; R 2.99; S 2.93; D 3.59; E 3.52; P 3.06
K18: F 2.54; E 3.43; H 3.71; M 2.22; S 3.06; D 3.81; V 2.68; A 3.2; L 2.49; P 3.47; G 2.81; T 2.81; R 2.38; I 2.34; C 2.63; Q 3.09; Y 2.05; N 2.98; W 2.32
S7: G 3.23; D 2.94; A 2.84; K 3.11; F 2.27; M 2.42; H 3.07; V 2.7; E 3.34; N 2.98; L 2.81; R 2.62; Q 2.9; I 2.6; C 2.92; T 2.81; W 2.24; P 3.47; Y 2.35
V17: S 3.3; Y 2.98; T 3.09; Q 3.38; M 2.75; E 3.5; F 2.67; A 3.28; N 3.39; I 2.63; K 3.47; W 2.53; D 3.33; H 3.55; P 3.13; L 2.77; C 2.91; G 3.12; R 4.01
S12: M 2.63; P 3.15; E 3.07; F 2.17; Q 3.71; T 3.07; K 3.83; N 3.16; G 3.36; R 3.32; I 2.36; H 3.16; W 2.23; A 2.97; L 2.33; Y 2.85; V 2.57; D 3.71; C 2.41
R11: S 2.77; K 3.17; C 2.59; N 2.87; V 2.52; A 3.68; E 3.33; Y 2.51; M 2.99; T 3.67; I 2.46; P 2.75; D 3.4; H 3.15; Q 3.46; G 2.83; W 1.87; L 2.3; F 2.32
S13: L 2.45; D 2.58; E 3.21; A 3.25; P 3.4; H 3.18; V 3.06; I 2.74; M 2.47; F 2.12; T 2.4; R 3.4; Q 3.35; K 3.49; N 3.21; C 3.01; Y 2.53; G 2.86; W 1.69
P23: M 2.8; V 3.02; D 3.2; I 2.82; F 2.6; N 2.96; K 3.25; W 2.04; E 3.1; A 3.37; L 2.3; G 2.69; H 3.01; S 3.25; Y 3.79; Q 3.08; T 3.62; C 2.73; R 3.33
V20: N 2.85; D 3.66; H 2.92; T 3.25; E 3.56; W 2.22; Y 2.85; S 3.35; A 3.54; K 3.7; Q 3.09; G 2.71; F 2.67; I 2.48; L 2.71; P 3.56; R 3.09; C 3.25; M 2.79
T8: C 2.8; V 2.53; A 2.82; M 2.98; D 3.32; Y 3; Q 3.26; I 2.63; S 2.89; L 2.43; P 3.38; R 2.57; N 3.4; W 2.49; G 3.71; F 2.63; E 3.51; K 3.02; H 2.76
S6: V 2.83; R 2.96; T 3.29; Y 2.48; P 2.63; N 2.77; W 2.17; M 2.62; Q 2.92; K 3.33; L 2.93
